Test results as given in patent US20080214462.

Biological target: factor X (FX), P00742
Sequence (P00742 whole entry, looked up): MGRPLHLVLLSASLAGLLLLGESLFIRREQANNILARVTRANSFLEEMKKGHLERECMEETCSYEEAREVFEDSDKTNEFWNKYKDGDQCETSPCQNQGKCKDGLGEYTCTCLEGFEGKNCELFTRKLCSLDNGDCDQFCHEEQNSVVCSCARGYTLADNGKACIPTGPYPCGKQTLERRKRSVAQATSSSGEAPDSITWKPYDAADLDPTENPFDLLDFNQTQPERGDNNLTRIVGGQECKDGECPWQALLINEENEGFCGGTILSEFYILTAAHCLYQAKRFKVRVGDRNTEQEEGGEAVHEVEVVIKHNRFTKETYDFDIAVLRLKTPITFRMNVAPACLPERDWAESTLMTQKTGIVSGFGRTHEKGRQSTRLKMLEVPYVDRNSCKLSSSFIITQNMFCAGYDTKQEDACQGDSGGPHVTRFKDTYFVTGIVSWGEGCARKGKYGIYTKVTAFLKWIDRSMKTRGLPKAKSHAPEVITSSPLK

Row | Protein | aPTT in FIX-depleted plasma: pdFIXa equivalent activity given for 0.5 µg/mL of FIXa protein (µg/mL pdFIXa activity)
1 | FIXa-Y94F/K98T/Y177F (protein) YNSGKLEEFVQGNLERECMEEKCSFEEAREVFENTERTTEFWKQYVDGDQCESNPCLNGGSCKDDINSYECWCPFGFEGKNCELDVTCNIKNGRCEQFCKNSADNKVVCSCTEGYRLAENQKSCEPAVPFPCGRVSVSQTSKLTRAEAVFPDVDYVNSTEAETILDNITQSTQSFNDFTRVVGGEDAKPGQFPWQVVLNGKVDAFCGGSIVNEKWIVTAAHCVETGVKITVVAGEHNIEETEHTEQKRNVIRIIPHHNFNAAINTYNHDIALLELDEPLVLNSYVTPICIADKEYTNIFLKFGSGYVSGWGRVFHKGRSALVLQYLRVPLVDRATCLRSTKFTIFNNMFCAGFHEGGRDSCQGDSGGPHVTEVEGTSFLTGIISWGEECAMKGKYGIYTKVSRYVNWIKEKTKLT | 1
2 | FIXa-Y94F/K98T/Y177F/I213V/E219G (protein) YNSGKLEEFVQGNLERECMEEKCSFEEAREVFENTERTTEFWKQYVDGDQCESNPCLNGGSCKDDINSYECWCPFGFEGKNCELDVTCNIKNGRCEQFCKNSADNKVVCSCTEGYRLAENQKSCEPAVPFPCGRVSVSQTSKLTRAEAVFPDVDYVNSTEAETILDNITQSTQSFNDFTRVVGGEDAKPGQFPWQVVLNGKVDAFCGGSIVNEKWIVTAAHCVETGVKITVVAGEHNIEETEHTEQKRNVIRIIPHHNFNAAINTYNHDIALLELDEPLVLNSYVTPICIADKEYTNIFLKFGSGYVSGWGRVFHKGRSALVLQYLRVPLVDRATCLRSTKFTIFNNMFCAGFHEGGRDSCQGDSGGPHVTEVEGTSFLTGIVSWGEGCAMKGKYGIYTKVSRYVNWIKEKTKLT | 14.4
